This passage reports unfolding free energy results from FireProtDB (doi:10.1074/jbc.m707838200).

For the data set the following is noted: Staphylococcus aureus; pH 7; 25 °C; Thermal; CD; Hepes-NaOH 20 mM; NaCl 170 mM; reversible: Yes; whole UniProt chain shown.

Several values for one entry are separate records, joined by “and”; a condition that tells them apart may be missing. Equal values may be shown once.

B1: wild type, Q9EYL5 (protein)
chain: MTKKLLTLFIVSMLILTACGKKESATTSSKNGKPLVVVYGDYKCPYCKELDEKVMPKLRKNYIDNHKVEYQFVNLAFLGKDSIVGSRASHAVLMYAPKSFLDFQKQLFAAQQDENKEWLTKELLDKHIKQLHLDKETENKIIKDYKTKDSKSWKAAEKDKKIAKDNHIKTTPTAFINGEKVEDPYDYESYEKLLKDKIK
Turning to B1, the unfolding free energy was 7.19 kcal/mol and 7.14 kcal/mol.
